Data: PMC2735609 (Cellular signalling, 2009)

Tests used:
Test in all cases: radioligand binding
[1] = target: hLHR(D405N,Y546F), on intact HEK293 cells (human, UniProt P22888 27-699, D405N | Y546F)
[2] = target: hLHR(D405N), on intact HEK293 cells (human, UniProt P22888 27-699, D405N)
[3] = target: hLHR(Y546F), on intact HEK293 cells (human, UniProt P22888 27-699, Y546F)
hLHR(Y546F), on intact HEK293 cells, sequence (P22888 27-699 Y546F): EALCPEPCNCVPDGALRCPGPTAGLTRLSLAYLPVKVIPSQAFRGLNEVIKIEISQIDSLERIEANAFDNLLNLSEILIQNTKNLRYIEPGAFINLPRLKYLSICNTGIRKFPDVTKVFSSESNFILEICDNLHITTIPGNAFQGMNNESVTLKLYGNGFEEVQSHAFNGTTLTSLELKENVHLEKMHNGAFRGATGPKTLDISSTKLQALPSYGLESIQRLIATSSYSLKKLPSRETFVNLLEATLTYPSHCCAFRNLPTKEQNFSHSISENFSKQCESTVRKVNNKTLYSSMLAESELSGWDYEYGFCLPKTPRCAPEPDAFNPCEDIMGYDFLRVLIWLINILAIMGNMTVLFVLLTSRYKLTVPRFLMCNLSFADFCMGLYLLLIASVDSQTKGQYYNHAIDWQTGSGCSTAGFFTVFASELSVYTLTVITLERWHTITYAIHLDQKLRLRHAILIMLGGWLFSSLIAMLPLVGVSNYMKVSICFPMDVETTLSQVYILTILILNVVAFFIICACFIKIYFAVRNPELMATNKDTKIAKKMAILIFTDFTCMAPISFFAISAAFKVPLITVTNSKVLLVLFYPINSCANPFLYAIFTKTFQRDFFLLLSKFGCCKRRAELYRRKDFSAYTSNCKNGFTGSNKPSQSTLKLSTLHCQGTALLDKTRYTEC

hLHR(D405N,Y546F), on intact HEK293 cells, sequence (P22888 27-699 D405N/Y546F): as the sequence (P22888 27-699 Y546F) above, with D379N counted along it
hLHR(D405N), on intact HEK293 cells, sequence (P22888 27-699 D405N): as the sequence (P22888 27-699 Y546F) above, with D379N, F520Y counted along it

B1: human chorionic gonadotropin (hCG), highly purified recombinant, 125I-labelled (ligand)
chain 1: not shown
chain 2: SKEPLRPRCRPINATLAVEKEGCPVCITVNTTICAGYCPTMTRVLQGVLPALPQVVCNYRDVRFESIRLPGCPRGVNPVVSYAVALSCQCALCRRSTTDCGGPKDHPLTCDDPRFQDSSSSKAPPPSLPSPSRLPGPSDTPILPQ
modifications: 125I label (which chain is not stated) | 125I label (which chain is not stated)
hCG bound to intact cells [1]: 8.7 ng hCG/10^6 cells
hCG bound to intact cells [2]: 20.4 ng hCG/10^6 cells
hCG bound to intact cells [3]: 22.6 ng hCG/10^6 cells
